Results from the DeepSol protein solubility set.

Assay: soluble on expression in E. coli; label from the status in PepcDB or PDB records

**Q.** Which “soluble on expression in E. coli” value does the source give for “MGSDKIHHHHHHMTALFQQLPSVDKILKTPQGLQLITEFGHTAVVATCRELLTQARQFIKKNNQLPEYFSNFDRTFLEIHSHLQKQNQVQIKAVHNLTGTVLHTNLGRALWSEAAQQAALSAMQKNVSLEYDLDEGKRSHRDNYISELLCKLTGAEAACIVNNNAAAVLLMLATFAQGKEVIISRGELIEIGGAFRIPDIMEQAGCHLVEVGTTNRTHLKDYRNAITENTAFLMKVHSSNYQICGFTSSVSEEELTELGQEMNVPVVTDLGSGALVDLSQYGLPKEPTVQEKIAQGVDLVSFSGDKLLGGVQAGIIVGKKEWIEQLQAHPLKRVLRCDKVILAGLEATLRLYLNPEKLTEKLPTLRLLTQPLKQLKINAMRLKERLESRLNSQFELQIEASQAQIGSGSQPMERIPSVAVTIAEKTNAKLSALSARFKQLSQPIIGRMENGKIWLDLRSLADIETLLNTLDEL” here?
**A.** not soluble

**Q.** Which “soluble on expression in E. coli” value does the source give for “MGSDKIHHHHHHMRIHVLCDDSSQNGFESEHGFSVLVDSVLFDTGKSDVFLKNARKLGIDLPKDVLISHGHYDHAGGLLYLSGKRVWLRKEALDQKYSGERYAGADWNEVLYYNTGKFVIERITEIGKNMFLLGPANLRGKVPTGDFFVERNGERRKDLFEDEQTLVVRTKEGLVVITGCSHRGIDNILLDIAETFNERIKMVVGGFHLLKSSDDEIEKIVKAFNELGVETVVPCHCTGERAVDIFKREFLGKIMDCYAGLKLEVSD” here?
**A.** soluble

**Q.** With “GSHMIVQIGRREEFDKKLLGEMHKLRAQVFKERKGWDVSVIDEMEIDGYDALSPYYMLIQEDGQVFGCWRILDTTGPYMLKNTFPELLHGKEAPCSPHIWELSRFAINSGQKGSLGFSDCTLEAMRALARYSLQNDIQTLVTVTTVGVEKMMIRAGLDVSRFGPHLKIGIERAVALRIELNAKTQIALYGGVLVEQRLAVS” as the sequence, how does the “soluble on expression in E. coli” value read?
**A.** soluble

**Q.** Which “soluble on expression in E. coli” value does the source give for “MEPGVDGARKQIAEVVAERIERLILDGVLKAGQALPSERRLTEKLGVSRTALREGLRVLWARQIIHTAQGKGSYVAQISQVDAGPLVHLFNSQPRTLYDLLEVRALLESESARLAAIRGTDADFIMIRRRYDEMLAAHGRETDSATHAHLDHAFHLAICQASHNAVLVHTLQSLTDLLLGSVFACVNNLYHREPHKRHIDQQHERLFLAVLAREPEQAHQAARAHVDSVRQSLAEIEQEEQRLVRATLRLEGWV” here?
**A.** not soluble

**Q.** Which “soluble on expression in E. coli” value does the source give for “MVLVLDFGSQYTRLIARRLRELRAFSLILPGDAPLEEVLKHRPQALILSGGPRSVFDPDAPRPDPRLFSSGLPLLGICYGMQLLAQELGGRVERAGRAEYGKALLTRHEGPLFRGLEGEVQVWMSHQDAVTAPPPGWRVVAETEENPVAAIASPDGRAYGVQFHPEVAHTPKGMQILENFLELAGVKRDWTPEHVLEELLREVRERAGKDRVLLAVSGGVDSSTLALLLAKAGVDHLAVFVDHGLLRLGEREEVEGALRALGVNLLVVDAKERFLKALKGVEDPEEKRKIIGREFVAAFSQVARERGPFRFLAQGTLYPDVIESAGGHGAAKIKSHHNVGGLPEDLEFELLEPFRLLFKDEVRELALLLGLPDTLRLRHPFPGPGLAVRVLGEVTEERLEILRRADDIFTSLLRERGLYEKVAQALAVLTPVRSVGVAGDERKYGYVLALRAVTTEDFMTADWARLPLEFLDEAARRITRRVPEIGRVVYDLTSKPPATIEWE” here?
**A.** soluble

**Q.** For “MGHAKHLIDGNIETFWHSRWQGGSDPLPYEIIIDMNHRVKIAQIELLPRGRGSNNPIKVVRFEASEDGTNWESIGQFGFTNQDAALKYYVKSSTARYIKLVIPDGVGNGTVAAIRELDVRGTVVNLEHHHHHH”, which “soluble on expression in E. coli” value is on record?
**A.** not soluble

**Q.** For “STDDKDVLRDVWFGRIPTCFTLYQDEITEREAEPYYLLLPRVSYLTLVTDKVKKHFQKVMRQEDVSEIWFEYEGTPLKWHYPIGLLFDLLASSSALPWNITVHFKSFPEKDLLHCPSKDAVEAHFMSCMKEADALKHKSQVINEMQKKDHKQLWMGLQNDRFDQFWAINRKLMEYPPEENGFRYIPFRIYQTTTERPFIQKLFRPVAADGQLHTLGDLLREVCPSAVAPEDGEKRSQVMIHGIEPMLETPLQWLSEHLSYPDNFLHISIVPQPTD”, which “soluble on expression in E. coli” value is on record?
**A.** soluble

**Q.** Which “soluble on expression in E. coli” value does the source give for “MNLTPGGNAPVPAQELRVRITSGGQVDASAFRLYADGKVQGDADMVFYGQPRNDDGTVSLVSEGQYSTFTVALNRLKPDVQKIAFTVTCDGGQTVSGLRNLSIDVEQGATGLVSGSVELSGRQEAALILGEFYRRNNDWKFRFVAQGFNGGLKPLAEHFGVNIADEPAPAAPTPPVVTPPPVETKISLSKVSLTKEKPAISLTKRDNFGEIRINLNWHRGSSKSGFAGMFGSKGIDLDLGAFVELQDGYKSVIQALGNAFGDYRDEPYVQLKGDDRTGDVSDGEWLHINGREWKHIREVLIYAFIYEGVPSWDKTDGVVTIHVPDQPPIETRLTEGENRRTLCAIARLVNENGAIKVERINQYFKGQDEMDRAFGWGFRWSAGSK” here?
**A.** not soluble

**Q.** Which “soluble on expression in E. coli” value does the source give for “MSLDEEKVGTEVPDPEISKMLFSEFCKSDGIGVSDVTKEEEFRYEDAWLTGYTYTQEVSIADLTEIISHSLTIQYGNNRSSVTFTDEIGTERKYTLNEEGYATQCEYASLDQKRQYTFLYTDGYLTQVNEKIMPREGSSDAVVAHTLSLQYDKGDLISTISPSLPYESSTGYGKLQTNYEAGEDINYYRLPCMLVADTYPLSFHREALFAGMLGKPTQHLTTASYPEKTSDTYTERTEYTYSFDKNKKPVSLKVSTKYGNGKSISYLNRTISITIEGHHHHHH” here?
**A.** soluble

**Q.** Which “soluble on expression in E. coli” value does the source give for “MSEEHIAVTRFREYLRVNTEQPNPDYVACRDFLFKYADEVGIERKAVETAPGVYFVIMTIPGSQPELPSIMLYSHTDVVPTFREHWTHDPYSAFKDEDGNIFARGAQDTKCLGVQHVEAFRNLFAKGAKQWKRTIHVVWGPDEETGHINGMKGFVETNEFKKLNIGFSLDEGHASENGVYLTFYAERVTWWLKVTAPGNPGHGSQFMENTAMEKIERFLASARAFRNEQKELLEKNPTWALGDVTTLNVNILKGGVQFNVIPEKFEAYVDIRLTPNQDFGEIRAKLDQWVKDAGEGVTYEFSQHSDYKPVSPHTRDDPFWAAFEDSLKQENCEFTTEVCVGSTDSRFVRKAGVPAINFSPMINTPVRAHAHNEFLNEKVFLRGVEIFETLINNLGNV” here?
**A.** not soluble

**Q.** With “MLKPKEINTENKSKKRIYLSSPHMSDEGYEKQYINEAFETNWIAPLGKNVDEFEKELAAKVGIKAAAALSSGTAAIHMALKAAGVGEGDIVFCPTLTFAATANPIIYQNAIPVFIDSDYETWNMSPEALEEAFKKYPKVKAVLVVHLYGLSADMDKIVEICKKHDVQLIEDAAESLGTTYKGRYTGTIGDYGIYSFNGNKIITTSGGGMLVSDNEERIAKVRFWATQARDNARHYQHSELGYNYRMSNVIAGIGRGQLKVLDQRIEKKRYIFDFYKRELGCIDEIDFMPVNDWNKPNCWLTCITLTGKVRPLDVIIRLEEENIESRPVWKPMHMQPFYQHYDYIGSNVSEKIFENGVCLPSDTKMTDEDLYRVVNIIKGLWK” as the sequence, how does the “soluble on expression in E. coli” value read?
**A.** not soluble

**Q.** Which “soluble on expression in E. coli” value does the source give for “MGSDKIHHHHHHMLPKYEIIKRDIIEKIESGEFSTGEKVYSEGDLKRKYNVSNTTVVKALNDLVNEGYLIRRQGEGTFVRKNLKHRKVFFSEKLSMSNNEKQKSVEETITLVSEEFTDKEIAQILGDKSGSKALLKLTQIALTNDFPWKIQNRYLFADKLRDDSVKRLIEGASLSDELGLQGNMANLPMTMEVSTILLTKDSDELEPLRIIRKSFGEEDSFSLFNIKRLIRGNDGVPIEYSQSFILSDFYQIEIISE” here?
**A.** not soluble

**Q.** For “MGSDKIHHHHHHMHKFNPDRIQIGISACLLGEQVRFDGGHKNSAYCQQELKPHFDFVPVCPEMAIGLGAPRKSIRQVRIEGEIRVRSADGSIDVTEQLQSFCNNKADGLGFLGGYLFCSKSPTCGMERVPVYKADGSGGFKEGVGVFAAALMKRFPHLPVEEEGRLHDLVIRENFFTRVYAYHDWHCMRLKGLTRKALTDFHARYKYLLLSHSPAIYRTLGPLLAGDGELEAVADSYFDGFMTALRHKASRRNHTSALQHIQGYFKKFLSGSQKAELSDAILAYRQGVQPLLVPITLIRHYLREHPNDYIAAQVYLNPHPDSLRLRYAY”, which “soluble on expression in E. coli” value is on record?
**A.** not soluble

**Q.** For “MGSDKIHHHHHHMTNGVLWRSSLLSDYWFSHLPAALQDSVLHAARQVRKTPGKMLFEKGAAPCGLYALLEGDVRIGGAHFQRLGPRLEPIRRPYWFGEVSLFDEMPRRFDVCSLEQTIFLQVPHSFLVSLLDRHPEYWRHFAALLSQKLGLPLQNPEKLQLLPPRSRVASRLLLLSEGYGPLSHARRLITLDEVTSLQDLSHSALLEVLEDLHERKVVRLGIGQLEVFDVDKLRKIANFSRARAVC”, which “soluble on expression in E. coli” value is on record?
**A.** not soluble
